The values that follow come from the RNAGym collection of RNA variant scans (doi:10.7554/elife.90254).

The chains are these.
B1: OR4K15 (parent)
chain: GUUAACGGUCAUAGGCCAUGGAAACUAGGAGCACCAUUUCGCUGCCAGUGAAGAAAUGAACAAAGAAAAUCUGGGCCAGGCAGGCAUCAAAAGAAAUAGUCUUGCGCUCAACCAGAAAGUCUGUAAUCAUUUUAAGGGUA

Variants of B1 are the subject of this data set. The data set can be described thus: self-cleavage, relative activity (ratio to wild type); higher = more cleavage; in vitro, sequencing; the parent is a self-cleaving ribozyme.
For the variant GUUAACGGUCAUAGGCCAUGGAGACUAGGAGCACCAUUUCGCUGCCAGUGAAGAAAUGAACAAAGAAAAUCUGGGCCAGGCAGGCAUCAAAAGAAAUAGUCUUGCGCUCAACCAGAAAGUCUGUAAGCAUUUUAAGGGUA [A23G U127G], the self-cleavage came out at 1.
The value for GUUAACGGUCAUAGGCCAUGGAGACUAGGAGCACCAUUUCGCUGCCAGUGAAGAAAUGAACAAAGAAAAUCUGGGCCAGGCAGGCAUCAAAAGAAAUAGUCUUGCGCUCAACCAGAAAGUCUGUAACCAUUUUAAGGGUA [A23G U127C] was 0.79.
For GUUAACGGUCAUAGGCCAUGGAGACUAGGAGCACCAUUUCGCUGCCAGUGAAGAAAUGAACAAAGAAAAUCUGGGCCAGGCAGGCAUCAAAAGAAAUAGUCUUGCGCUCAACCAGAAAGUCUGUAAUCAUUUUAAGGGCA [A23G U139C] the value was 1.26; for GUUAACGGUCAUAGGCCAUGGAGACUAGGAGCACCAUUUCGCUGCCAGUGAAGAAAUGAACAAAGAAAAUCUGGGCCAGGCAGGCAUCAAAAGAAAUAGUCUUGCGCUCAACCAGAAAGUCCGUAAUCAUUUUAAGGGUA [A23G U122C], 0.84; for GUUAACGGUCAUAGGCCAUGGAGACUAGGAGCACCAUUUCGCUGCCAGUGAAGAAAUGAACAAAGAAAAUCUGGGCCAGGCAGGCACCAAAAGAAAUAGUCUUGCGCUCAACCAGAAAGUCUGUAAUCAUUUUAAGGGUA [A23G U87C], 0.61.
Turning to GUUAACGGUCAUAGGCCAUGGAGACUAGGAGCACCAUUUCGCUGCCAGUGAAGAAAUGAACAAAGAAAAUCUGGGCCAGGCAGGCAACAAAAGAAAUAGUCUUGCGCUCAACCAGAAAGUCUGUAAUCAUUUUAAGGGUA [A23G U87A], the self-cleavage is 0.94.
As to GUUAACGGUCAUAGGCCAUGGAGACUAGGAGCACCAUUUCGCUGCCAGUGAAGAAAUGAACAAAGAAAAUCUGGGCCAGGCAGGCAUCAAAAGAAAUAGUCUUGCGCUCAACCAGAAAGUCUGUAAUCAUCUUAAGGGUA [A23G U131C], the self-cleavage was 0.45.
For GUUAACGGUCAUAGGCCAUGGAGACUAGGAGCACCAUUUCGCUGCCAGUGAAGAAAUGAACAAAGAAAAUCCGGGCCAGGCAGGCAUCAAAAGAAAUAGUCUUGCGCUCAACCAGAAAGUCUGUAAUCAUUUUAAGGGUA [A23G U72C] the value was 0.3; for GUUAACGGUCAUAGGCCAUGGAGACUAGGAGCACCAUUUCGCUGCCAGUGAAGAAAUGAACAAAGAAAAUCUGGGCCAGGCAGGCAUCAAAAGAAAUAGUCCUGCGCUCAACCAGAAAGUCUGUAAUCAUUUUAAGGGUA [A23G U102C], 1.87.
On to GUUAACGGUCAUAGGCCAUGGAGACUAGGAGCACCAUUUCGCUGCCAGUGAAGAAAUGAACAAAGAAAAUCUGGGCCAGGCAGGCAUCAAAAGAAAAAGUCUUGCGCUCAACCAGAAAGUCUGUAAUCAUUUUAAGGGUA [A23G U97A], for which the self-cleavage is 1.48.
The value for GUUAACGGUCAUAGGCCAUGGAGACUAGGAGCACCAUUUCGCUGCCAGUGAAGAAAUGAACAAAGAAAAUCUGGGCCAGGCAGGCAUCAAAAGAAACAGUCUUGCGCUCAACCAGAAAGUCUGUAAUCAUUUUAAGGGUA [A23G U97C] was 0.8; that for GUUAACGGUCAUAGGCCAUGGAGACUAGGAGCACCAUUUCGCUGCCAGUGAAGAAAUGAACAAAGAAAAUCUGGGCCAGGCAGGCAUCAAAAGAAAUAGUCUUGCGCACAACCAGAAAGUCUGUAAUCAUUUUAAGGGUA [A23G U108A] was 0.02; that for GUUAACGGUCAUAGGCCAUGGAGACUAGGAGCACCAUUUCGCUGCCAGUGAAGAAAUGAACAAAGAAAAUCUGGGCCAGGCAGGCAUCAAAAGAAAUAGUCUUGCGCUCAACCAGAAAGUCUGCAAUCAUUUUAAGGGUA [A23G U124C] was 0.69.
With GUUAACGGUCAUAGGCCAUGGAGACUAGGAGCACCAUUUCGCUGCCAGUGAAGAAAUGAACAAAGAAAAUCUGGGCCAGGCAGGCAUCAAAAGAAAUAGUCUUGCGCUCAACCAGAAAGUCUGAAAUCAUUUUAAGGGUA [A23G U124A], the self-cleavage was determined as 0.25.
In the case of GUUAACGGUCAUAGGCCAUGGAGACUAGGAGCACCAUUUCGCUGCCAGUGAAGAAAUGAACAAAGAAAAUCUGGGCCAGGCAGGCAUCAAAAGAAAUAGUCUAGCGCUCAACCAGAAAGUCUGUAAUCAUUUUAAGGGUA [A23G U103A], the self-cleavage is 0.75.
For GUUAACGGUCAUAGGCCAUGGAUACUGGGAGCACCAUUUCGCUGCCAGUGAAGAAAUGAACAAAGAAAAUCUGGGCCAGGCAGGCAUCAAAAGAAAUAGUCUUGCGCUCAACCAGAAAGUCUGUAAUCAUUUUAAGGGUA [A23U A27G] the value was 1.16; for GUUAACGGUCAUAGGCCAUGGAGACUAGGAGCACCAUUUCGCUGCCAGUGAAGAAAUGAACAAAGAAAAUCUGGGCCAGGCAGGCAUCAAAAGAAAUAGUCUUGCGCUCAACCAGAAAGCCUGUAAUCAUUUUAAGGGUA [A23G U120C], 0.96.
For GUUAACGGUCAUAGGCCAUGGAGACUAGGAGCACCAUUUCGCUGCCAGUGAAGAAAUGAACAAAGAAAAUCUGGGCCAGGCAGGCAUCAAAAGAAAUAGUCUUGCGCUCAACCAGAAAGACUGUAAUCAUUUUAAGGGUA [A23G U120A] the value was 0.47; for GUUAACGGUCAUAGGCCAUGGAGACUAGGAGCACCAUUUCGCUGCCAGUGAAGAAAUGAACAAAGAAAAUCUGGGCCAGGCAGGCAUCAAAAGAAAUAGUCUUGCGCUCAACCAGAAAGGCUGUAAUCAUUUUAAGGGUA [A23G U120G], 1.48.
For the variant GUUAACGGUCAUAGGCCAUGGAUACUAGGUGCACCAUUUCGCUGCCAGUGAAGAAAUGAACAAAGAAAAUCUGGGCCAGGCAGGCAUCAAAAGAAAUAGUCUUGCGCUCAACCAGAAAGUCUGUAAUCAUUUUAAGGGUA [A23U A30U], the self-cleavage came to 0.26.
GUUAACGGUCAUAGGCCAUGGAUACUAGGGGCACCAUUUCGCUGCCAGUGAAGAAAUGAACAAAGAAAAUCUGGGCCAGGCAGGCAUCAAAAGAAAUAGUCUUGCGCUCAACCAGAAAGUCUGUAAUCAUUUUAAGGGUA [A23U A30G]: the self-cleavage is 1.09.
